Laboratory results reported in patent US20080274959A1, “Actinomadura Chromoprotein, Apoprotein and Gene Cluster” (Wyeth, priority 2004, published 2008).

Assays:
BT474 = experiment: Potency against human tumor cell lines: BT474; format: cell-based; details: BT474, Breast
[1] = test system: LoVo, HCT116, HT29, LOX, HN5 and PC-3 tumors; experiment: In vivo anti-tumor activity, subcutaneous human tumor xenografts; design: species or system athymic (nude) mice; details: intravenous in saline, further doses on days 5 and 9; all six xenograft models
Protocol: The human tumor cell lines or fragments LoVo (colon cancer); HCT116 (colon); HT29 (colon); LOX (melanoma); HN5 (head & neck); and PC-3 (prostate) were implanted under the skin of athymic (nude) mice and allowed to form a tumor mass. When the tumors reached a size of 90-200 mg, the saline control vehicle or various concentrations of the Actinomadura sp. 21G792 chromoprotein formulated in saline was administered intravenously to the mice. The mice received subsequent doses on days 5 and 9 and the relative tumor growth was observed. The results are shown in the graphs in FIG. 24 and FIG. 25. Inhibition of tumor growth of up to 80% for mice receiving the chromoprotein was observed.

Human PGP (MDR1) = biological target: T1, Human PGP (MDR1) (Homo sapiens, UniProt P08183); experiment: Transport by P-GP (MDR-1); format: cell-based; details: judged from IC50 in KB, KB-8-5, KB-V-1 cells
T1 construct: endogenous in cells; parental KB is P-GP negative
Source text: (§1) Human PGP (MDR1) is an ATP-dependent efflux pump which is capable of transporting many drugs across cell membranes. High level expression of this protein has been linked to multiple drug resistance of tumors. […] The protein component of the chromoprotein probably protects the chromophore from drug efflux mediated by MDR1, and may be responsible for the beneficial antitumor effects in colon cell lines which often express MDR1.

histone H1 in HeLa cells = experiment: Digestion of histone H1 in HeLa cells, immunoblot; format: cell-based; details: overnight at 37° C., anti-histone H1 immunoblot
Protocol: To study whether the digestion of histones by the chromoprotein occurs in intact cells, HeLa cells were incubated with compounds overnight at 37° C. Cell lysates were analysed by SDS-PAGE and protein immunoblotting using anti-histone H1 antibodies (Santa Cruz Biotechnologies). […] This activity can contribute to antitumor effects by digesting histones in chromatin, making the DNA more accessible for cleavage. This appears to be a unique activity of the chromoprotein enediynes.

DLD1 = experiment: Potency against human tumor cell lines: DLD1; format: cell-based; details: DLD1, Colon
KB-8-5 = experiment: IC50 against P-GP expressing cells: KB-8-5; format: cell-based; details: KB-8-5, P-GP level +; mean of two independent experiments
Source text: as §1

LOX = experiment: Potency against human tumor cell lines: LOX; format: cell-based; details: Melanoma
MDA-MB-361 = experiment: Potency against human tumor cell lines: MDA-MB-361; format: cell-based; details: MDA-MB-361, Breast
PC3 = experiment: Potency against human tumor cell lines: PC3; format: cell-based; details: PC3, Prostate
p21−/− cells = experiment: Sensitivity of isogenic cell lines, p21−/−; format: cell-based, human
Source text: (§2) The p53/p21 checkpoint monitors the integrity of the genome and blocks cell cycle progression in the event of DNA damage. Disruption of the checkpoint by deletion of the p21 gene results in failure to arrest in response to DNA damage ultimately leading to cell death through apoptosis. Since loss of this checkpoint is a hallmark of cancer cells, an isogenic pair of cell lines, wherein one pair of the cell line (p21+/+) has an intact p21 gene and one member (p21−/−) has a deletion in the p21 gene, can be used to screen for potential anti-tumor compounds by identifying molecules that preferentially induce apoptosis in p21-deficient cells.
(§3) The Actinomadura sp. 21G792 chromoprotein was added to an isogenic pair of cell lines (p21+/+ and p21−/−).

HT29 = experiment: Potency against human tumor cell lines: HT29; format: cell-based; details: HT29, Colon
LoVo = experiment: Potency against human tumor cell lines: LoVo; format: cell-based; details: Colon
myelin basic protein = experiment: Specificity of digestion: myelin basic protein; format: biochemical
bovine serum albumin = bovine serum albumin (Bos taurus, UniProt P02769); experiment: Specificity of digestion: bovine serum albumin; format: biochemical; details: neutral/acidic protein
[2] = test system: p53/p21 checkpoint in HCT116 (p21+/+ and p21−/−) cells; experiment: Induction of the G1/S (p53/p21) checkpoint, immunoblot; format: cell-based, human
Source text: HCT116 (p21+/+ and p21−/−) cells were exposed to the chromoprotein at various concentrations. […] Activation of the DNA damage checkpoint by the Actinomadura sp. […] 21G792 chromoprotein as shown by the cleavage of poly ADP ribose […] (PARP) (FIG. 23B). This is consistent with the lower IC50 value in the p21−/− cells.

HCT116 cells = experiment: Uptake of FITC-tagged protein, fluorescent microscopy / flow cytometry; format: cell-based, human; details: FITC-labeled
Source text: To determine the mechanism by which the chromoprotein enters cells and exerts its biological activity, the chromoprotein was labeled with a fluorescent tag (FITC) using EZ-Label fluorescent labeling kit (Pierce Biotechnology), according to the manufacturer's recommendation. […] Uptake of labeled material by HCT116 colon carcinoma cells was studied by fluorescent microscopy.
To determine whether an intact complex of chromophore and apoprotein is required for cellular and nuclear entry, the chromoprotein and apoprotein were labeled with FITC. Uptake of labeled material was studied by fluorescent microscopy.
To determine whether the entry of chromoprotein into cells is mediated by a saturable (e.g. cell surface receptor-dependent) process, HCT116 cells were incubated with FITC-labeled chromoprotein (FIG. 28, right panel) or apoprotein (FIG. 28, left panel) in the absence or presence of 10-fold excess of unlabeled reagent (unlabelled chromoprotein or apoprotein, respectively). Cells were analysed by fluorescent microscopy (left) or flow cytometry (right). […] Numbers in the histograms are mean channel numbers (FITC fluorescence).
Other means by which a protein complex can enter cells is pinocytosis, where caveolae in the surface of the cell pinch off to form pinosomes that are free within the cytoplasm of the cell. Since pinocytosis is an energy-dependent process that requires a functional tubulin cytoskeletal network, we examined the effect of sodium azide, an energy uncoupling agent and nocodazole, an agent which disrupts the tubulin cytoskeleton on cellular uptake. HCT116 cells were treated with FITC-labeled apoprotein in the absence or presence of sodium azide or nocodazole.

p21+/+ cells = experiment: Sensitivity of isogenic cell lines, p21+/+; format: cell-based, human; details: p21+/+ isogenic cell line; Mean ± SD, n = 3
Source text: as §2, §3

Sequence of bovine serum albumin (P02769 25-607): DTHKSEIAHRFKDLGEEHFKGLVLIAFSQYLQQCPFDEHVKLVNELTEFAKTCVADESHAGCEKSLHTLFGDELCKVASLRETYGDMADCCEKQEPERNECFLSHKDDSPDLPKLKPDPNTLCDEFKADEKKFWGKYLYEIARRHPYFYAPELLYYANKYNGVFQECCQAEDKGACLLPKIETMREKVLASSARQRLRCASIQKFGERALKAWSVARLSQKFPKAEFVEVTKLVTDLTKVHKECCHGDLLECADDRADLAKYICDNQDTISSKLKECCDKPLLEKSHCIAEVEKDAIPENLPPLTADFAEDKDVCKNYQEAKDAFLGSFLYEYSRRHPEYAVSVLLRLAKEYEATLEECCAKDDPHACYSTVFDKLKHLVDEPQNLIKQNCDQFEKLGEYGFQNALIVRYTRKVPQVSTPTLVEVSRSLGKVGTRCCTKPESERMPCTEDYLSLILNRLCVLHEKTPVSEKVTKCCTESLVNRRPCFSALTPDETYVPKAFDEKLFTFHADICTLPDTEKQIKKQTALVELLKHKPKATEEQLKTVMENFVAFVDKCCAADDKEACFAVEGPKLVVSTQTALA
T1 sequence (P08183 whole entry): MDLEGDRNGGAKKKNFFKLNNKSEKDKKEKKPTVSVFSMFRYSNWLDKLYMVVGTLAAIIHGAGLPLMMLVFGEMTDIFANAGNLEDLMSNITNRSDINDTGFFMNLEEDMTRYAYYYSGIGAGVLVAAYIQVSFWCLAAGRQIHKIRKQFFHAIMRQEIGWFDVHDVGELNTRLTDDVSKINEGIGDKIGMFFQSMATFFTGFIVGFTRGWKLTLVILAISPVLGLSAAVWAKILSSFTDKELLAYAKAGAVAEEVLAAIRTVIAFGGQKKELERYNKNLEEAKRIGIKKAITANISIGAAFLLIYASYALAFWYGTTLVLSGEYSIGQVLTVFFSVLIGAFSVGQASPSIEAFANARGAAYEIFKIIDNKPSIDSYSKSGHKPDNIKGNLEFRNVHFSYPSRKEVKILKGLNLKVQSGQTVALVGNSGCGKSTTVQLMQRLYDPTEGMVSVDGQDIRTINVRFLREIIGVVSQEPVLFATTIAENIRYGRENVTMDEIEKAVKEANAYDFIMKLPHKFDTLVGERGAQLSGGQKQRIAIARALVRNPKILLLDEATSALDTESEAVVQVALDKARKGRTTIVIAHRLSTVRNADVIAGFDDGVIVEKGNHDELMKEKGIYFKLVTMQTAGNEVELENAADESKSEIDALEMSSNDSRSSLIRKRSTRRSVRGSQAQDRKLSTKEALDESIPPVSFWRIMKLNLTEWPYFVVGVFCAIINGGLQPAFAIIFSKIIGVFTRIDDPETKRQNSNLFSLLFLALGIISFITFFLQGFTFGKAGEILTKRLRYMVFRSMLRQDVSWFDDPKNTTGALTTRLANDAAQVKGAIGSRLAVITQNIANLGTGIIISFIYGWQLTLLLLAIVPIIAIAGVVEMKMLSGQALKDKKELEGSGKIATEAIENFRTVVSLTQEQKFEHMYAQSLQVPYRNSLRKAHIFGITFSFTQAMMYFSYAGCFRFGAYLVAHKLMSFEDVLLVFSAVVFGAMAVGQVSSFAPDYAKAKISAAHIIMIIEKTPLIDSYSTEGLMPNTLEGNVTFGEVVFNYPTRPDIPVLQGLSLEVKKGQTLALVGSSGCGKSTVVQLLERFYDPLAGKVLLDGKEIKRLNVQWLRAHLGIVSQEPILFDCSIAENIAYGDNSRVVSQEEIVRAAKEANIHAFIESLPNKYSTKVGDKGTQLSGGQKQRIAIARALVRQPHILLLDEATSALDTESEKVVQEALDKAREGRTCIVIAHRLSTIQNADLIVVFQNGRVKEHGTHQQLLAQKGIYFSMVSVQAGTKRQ

B1: Actinomadura sp. 21G792 chromoprotein: non-covalent complex of an apoprotein and a chromophore comprising a nine-membered enediyne, produced by Actinomadura sp. 21G792 (NRRL 30778) (protein)
chain: DTVTVNYDCVGYPSDIAVTIDAPATAGVGDTATFEVSSVVTTGAPQDLPAGEVVTDMAIVVGGAQSGTITASGLTNEATPAGQPVNMVGGEAQITFTSAGSVTFTPSTTTQVDNGAQCTVVGEAPVGATTVVS
BT474
  IC50: 47 ng/mL
[1]
  Inhibition of tumor growth: up to 80%
Human PGP (MDR1)
  MDR1 substrate: poor MDR1 substrate
Histone H1 in HeLa cells
  histone H1 in cells after incubation: reduced histone H1 in cells
DLD1
  IC50: 8000 ng/mL
KB-8-5
  IC50: 6 ng/mL
LOX
  IC50: 1 ng/mL
MDA-MB-361
  IC50: 5 ng/mL
PC3
  IC50: 22000 ng/mL
p21−/− cells; IC50 p21+/+ versus p21−/−
  Selectivity Ratio: 13
p21−/− cells; p21−/− isogenic cell line, Mean ± SD, n = 3
  IC50: 7000 ± 2000 ng/mL
p21−/− cells; text statement of the selectivity
  IC50 higher for p21+/+ cells than for p21−/− cells: 13 fold
HT29
  IC50: 8 ng/mL
LoVo
  IC50: 2 ng/mL
Myelin basic protein
  cleavage of myelin basic protein: cleaves
Bovine serum albumin
  cleavage of bovine serum albumin: not neutral/acidic proteins such as bovine serum albumin
[2]
  induction of the p21 protein: seen in the p21+/+ cells only
  phosphorylation of serine-15 of p53: phosphorylation of the serine-15 amino acid residue in p53
[2]; HCT116 p21+/+ and p21−/−, various concentrations
  activation of the p53 checkpoint: activation of the p53 checkpoint for all tested concentrations
[2]; p21−/− compared with p21+/+ cells
  induction of apoptosis (PARP cleavage): preferentially observed in p21−/− cells
HCT116 cells
  biological activity after FITC labeling: No loss of biological activity
  uptake, apoprotein compared with chromoprotein: similar
HCT116 cells; incubation 3-6 hours, fluorescent microscopy
  cellular localisation of label: Most of the label appeared in the cytoplasm
HCT116 cells; microscopy or flow cytometry
  competition of uptake by 10-fold excess of unlabeled reagent: No competition of label
p21+/+ cells
  IC50: 90000 ± 32000 ng/mL
